# In patent US20210363265A1 (INVENRA, published 2021):
# T1: OX40 on T cells (primary naive CD4+ T cells; Jurkat/OX40 reporter cells) (UniProt P43489 29-277, limits assumed)
# T1 sequence (looked up): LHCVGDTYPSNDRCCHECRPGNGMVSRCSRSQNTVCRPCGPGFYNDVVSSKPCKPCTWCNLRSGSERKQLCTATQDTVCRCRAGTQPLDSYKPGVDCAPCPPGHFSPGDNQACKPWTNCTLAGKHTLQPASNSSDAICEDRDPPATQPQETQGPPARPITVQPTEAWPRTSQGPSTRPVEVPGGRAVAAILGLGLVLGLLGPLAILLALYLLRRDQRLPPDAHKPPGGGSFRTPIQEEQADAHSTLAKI
# Columns and labels:
# [1] = target: T2, OX40: 127-214-Fc (human); assay: BLI, OX40-Fc truncation immobilized on sensor
# T2 construct: Immobilized on the BLI sensor
# T2 sequence (chain, as listed by the source): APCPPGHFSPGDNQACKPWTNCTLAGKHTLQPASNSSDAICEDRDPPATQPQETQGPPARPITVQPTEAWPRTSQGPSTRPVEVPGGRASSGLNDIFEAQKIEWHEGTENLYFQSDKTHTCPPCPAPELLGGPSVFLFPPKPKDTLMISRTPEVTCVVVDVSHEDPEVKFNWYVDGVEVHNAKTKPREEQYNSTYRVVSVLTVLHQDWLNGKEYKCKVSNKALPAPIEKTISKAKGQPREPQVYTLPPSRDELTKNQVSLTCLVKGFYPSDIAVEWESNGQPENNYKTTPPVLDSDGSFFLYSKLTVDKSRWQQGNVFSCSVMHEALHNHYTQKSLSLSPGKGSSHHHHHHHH
# [2] = target: T3, OX40: 108-214-Fc (human); assay: BLI, OX40-Fc fragment immobilized on sensor
# T3 construct: Immobilized on the BLI sensor
# T3 sequence (chain, as listed by the source): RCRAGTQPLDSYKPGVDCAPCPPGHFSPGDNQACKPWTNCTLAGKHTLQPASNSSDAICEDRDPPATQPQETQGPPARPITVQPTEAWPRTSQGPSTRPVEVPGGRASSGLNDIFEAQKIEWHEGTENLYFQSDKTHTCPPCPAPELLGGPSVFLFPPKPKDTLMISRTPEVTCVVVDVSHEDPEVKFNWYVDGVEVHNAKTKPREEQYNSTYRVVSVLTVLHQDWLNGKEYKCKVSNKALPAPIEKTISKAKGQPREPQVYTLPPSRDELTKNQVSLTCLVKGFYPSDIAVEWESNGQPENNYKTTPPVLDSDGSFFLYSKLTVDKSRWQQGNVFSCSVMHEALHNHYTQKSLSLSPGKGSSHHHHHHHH
# [3] = target: T4, OX40: 66-214-Fc (human); assay: BLI, OX40-Fc fragment immobilized on sensor
# T4 construct: Immobilized on the BLI sensor; also called first truncation
# T4 sequence (chain, as listed by the source): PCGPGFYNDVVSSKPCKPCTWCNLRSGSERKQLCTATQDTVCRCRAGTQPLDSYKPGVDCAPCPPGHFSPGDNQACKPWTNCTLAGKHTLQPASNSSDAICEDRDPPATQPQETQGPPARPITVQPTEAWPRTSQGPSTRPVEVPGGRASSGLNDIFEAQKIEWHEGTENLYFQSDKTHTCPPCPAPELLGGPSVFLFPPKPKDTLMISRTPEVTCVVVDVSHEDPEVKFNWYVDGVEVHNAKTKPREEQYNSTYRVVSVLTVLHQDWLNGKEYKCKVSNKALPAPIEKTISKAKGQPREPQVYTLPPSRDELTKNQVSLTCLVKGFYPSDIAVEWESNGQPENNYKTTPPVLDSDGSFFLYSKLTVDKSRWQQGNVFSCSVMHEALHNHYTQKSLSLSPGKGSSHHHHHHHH
# [4] = target: T1, OX40 on T cells (primary naive CD4+ T …); assay: cell-based or functional assay
binder,measurement,setting,value
"Tavolixizumab (IgG1-kappa) (antibody, V domains shown) VH: QVQLQESGPGLVKPSQTLSLTCAVYGGSFSSGYWNWIRKHPGKGLEYIGYISYNGITYHNPSLKSRITINRDTSKNQYSLQLNSVTPEDTAVYYCARYKYDYDGGHAMDYWGQGTLVTVSS VL: DIQMTQSPSSLSASVGDRVTITCRASQDISNYLNWYQQKPGKAPKLLIYYTSKLHSGVPSRFSGSGSGTDYTLTISSLQPEDFATYYCQQGSALPWTFGQGTKVEIKR",binding result,[1],no binding
same,binding result,[2],binds
"Pogalizumab (IgG1-kappa) (antibody, V domains shown, also called Pagolizumab) VH: EVQLVQSGAEVKKPGASVKVSCKASGYTFTDSYMSWVRQAPGQGLEWIGDMYPDNGDSSYNQKFRERVTITRDTSTSTAYLELSSLRSEDTAVYYCVLAPRWYFSVWGQGTLVTVSS VL: DIQMTQSPSSLSASVGDRVTITCRASQDISNYLNWYQQKPGKAPKLLIYYTSRLRSGVPSRFSGSGSGTDFTLTISSLQPEDFATYYCQQGHTLPPTFGQGTKVEIKR",binding result,[1],no binding
same,binding result,[2],binds
"GSK3174998 (antibody, human IgG1, kappa, V domains shown, also called Clinical mAB; clinical) VH: EVKLEESGGGLVQPGGSMKLSCAASGFTFSDAWMDWVRQSPEKGLEWVAEIRSKANNHATYYAESVNGRFTISRDDSKSSVYLQMNSLRAEDTGIYYCTWGEVFYFDYWGQGTTLTVSS VL: DIQMTQSPSSLSASLGGKVTITCKSSQDINKYIAWYQHKPGKGPRLLIHYTSTLQPGIPSRFSGSGSGRDYSFSISNLEPEDIATYYCLQYDNLLTFGAGTKLELKR",binding result,[3],binds
OX40:24-24×11 (bispecific antibody) chain 1: not shown chain 2: EVQLVESGGGLVQPGGSLRLSCAASGFTFLSYYIHWVRQAPGKGLEWVAYIDPYSGGTDYADSVKGRFTISADTSKNTAYLQMNSLRAEDTAVYYCARVGLSFYAQEPVLDYWGQGTLVTVSSASPREPQVYTDPPSRDELTKNQVSLTCLVKGFYPSDIAVEWESNGQPENNYKTTPPVLDSDGSFFLYSKLTVDKSRWQQGNVFSCSVMHEALHNHYTQKSLSLSGEC chain 3: DIQMTQSPSSLSASVGDRVTITCRASQSVSSAVAWYQQKPGKAPKLLIYSASSLYSGVPSRFSGSRSGTDFTLTISSLQPEDFATYYCQQYTSHPGTFGQGTKVEIKRTVAAPSVFIFPPSDEQLKSGTASVVCLLNNFYPREAKVQWKVDNALQSGNSQESVTEQDSKDSTYSLSSTLTLSKADYEKHKVYACEVTHQGLSSPVTKSFNRGECDKTHTCPPCPAPELLGGPSVFLFPPKPKDTLMISRTPEVTCVVVDVSHEDPEVKFNWYVDGVEVHNAKTKPREEQYNSTYRVVSVLTVLHQDWLNGKEYKCKVSNKALPAPIEKTISKAKGQPREPQVCTLPPSREEMTKNQVSLSCAVKGFYPSDIAVEWESNGQPENNYKTTPPVLDSDGSFFLVSKLTVDKSRWQQGNVFSCSVMHEALHNHYTQKSLSLSPGK chain 4: EVQLVESGGGLVQPGGSLRLSCAASGFTFSSYVIHWVRQAPGKGLEWVAYIFPYGGTTYYADSVKGRFTISADTSKNTAYLQMNSLRAEDTAVYYCARGYYYVSDRVMDYWGQGTLVTVSSASTKGPSVFPLAPSSKSTSGGTAALGCLVKDYFPEPVTVSWNSGALTSGVHTFPAVLQSSGLYSLSSVVTVPSSSLGTQTYICNVNHKPSNTKVDKKVEPPKSC,antibody concentration at peak T cell proliferation,[4],10 nM
OX40:24(WEE)-11×11 (bispecific antibody) chain 1: not shown chain 2: EVQLVESGGGLVQPGGSLRLSCAASGFTFSSYVIHWVRQAPGKGLEWVAYIFPYGGTTYYADSVKGRFTISADTSKNTAYLQMNSLRAEDTAVYYCARGYYYVSDRVMDYWGQGTLVTVSSASTKGPSVFPLAPSSKSTSGGTAALGCLVKDYFPEPVTVSWNSGALTSGVHTFPAVLQSSGLYSLSSVVTVPSSSLGTQTYICNVNHKPSNTKVDKKVEPPKSC chain 3: DIQMTQSPSSLSASVGDRVTITCRASQSVSSAVAWYQQKPGKAPKLLIYSASSLYSGVPSRFSGSRSGTDFTLTISSLQPEDFATYYCQQYTSHPGTFGQGTKVEIKRTVAAPSVFIFPPSDEQLKSGTASVVCLLNNFYPREAKVQWKVDNALQSGNSQESVTEQDSKDSTYSLSSTLTLSKADYEKHKVYACEVTHQGLSSPVTKSFNRGECDKTHTCPPCPAPELLGGPSVFLFPPKPKDTLMISRTPEVTCVVVDVSHEDPEVKFNWYVDGVEVHNAKTKPREEQYNSTYRVVSVLTVLHQDWLNGKEYKCKVSNKALPAPIEKTISKAKGQPREPQVCTLPPSREEMTKNQVSLSCAVKGFYPSDIAVEWESNGQPENNYKTTPPVLDSDGSFFLVSKLTVDKSRWQQGNVFSCSVMHEALHNHYTQKSLSLSPGK chain 4: EVQLVESGGGLVQPGGSLRLSCAASGFTFLSYYIHWVRQAPGKGLEWVAYIDPYSGGTDYADSVKGRFTISADTSKNTAYLQMNSLRAEDTAVYYCARVGLSFYAQEPVLDYWGQGTLVTVSSASPREPQVYTDPPSRDELTKNQVSLTCLVKGFYPSDIAVEWESNGQPENNYKTTPPVLDSDGSFFLYSKLTVDKSRWQQGNVFSCSVMHEALHNHYTQKSLSLSGEC,antibody concentration at peak T cell proliferation,[4],< 10 nM
OX40:24-11×11 (bispecific antibody) chain 1: not shown chain 2: EVQLVESGGGLVQPGGSLRLSCAASGFTFSSYVIHWVRQAPGKGLEWVAYIFPYGGTTYYADSVKGRFTISADTSKNTAYLQMNSLRAEDTAVYYCARGYYYVSDRVMDYWGQGTLVTVSSASTKGPSVFPLAPSSKSTSGGTAALGCLVKDYFPEPVTVSWNSGALTSGVHTFPAVLQSSGLYSLSSVVTVPSSSLGTQTYICNVNHKPSNTKVDKKVEPPKSC chain 3: DIQMTQSPSSLSASVGDRVTITCRASQSVSSAVAWYQQKPGKAPKLLIYSASSLYSGVPSRFSGSRSGTDFTLTISSLQPEDFATYYCQQYTSHPGTFGQGTKVEIKRTVAAPSVFIFPPSDEQLKSGTASVVCLLNNFYPREAKVQWKVDNALQSGNSQESVTEQDSKDSTYSLSSTLTLSKADYEKHKVYACEVTHQGLSSPVTKSFNRGECDKTHTCPPCPAPELLGGPSVFLFPPKPKDTLMISRTPEVTCVVVDVSHEDPEVKFNWYVDGVEVHNAKTKPREEQYNSTYRVVSVLTVLHQDWLNGKEYKCKVSNKALPAPIEKTISKAKGQPREPQVCTLPPSREEMTKNQVSLSCAVKGFYPSDIAVEWESNGQPENNYKTTPPVLDSDGSFFLVSKLTVDKSRWQQGNVFSCSVMHEALHNHYTQKSLSLSPGK chain 4: EVQLVESGGGLVQPGGSLRLSCAASGFTFLSYYIHWVRQAPGKGLEWVAYIDPYSGGTDYADSVKGRFTISADTSKNTAYLQMNSLRAEDTAVYYCARVGLSFYAQEPVLDYWGQGTLVTVSSASPREPQVYTDPPSRDELTKNQVSLTCLVKGFYPSDIAVEWESNGQPENNYKTTPPVLDSDGSFFLYSKLTVDKSRWQQGNVFSCSVMHEALHNHYTQKSLSLSGEC,antibody concentration at peak T cell proliferation,[4],< 10 nM
OX40:24-24(WEE)×11 (bispecific antibody) chain 1: not shown chain 2: EVQLVESGGGLVQPGGSLRLSCAASGFTFLSYYIHWVRQAPGKGLEWVAYIDPYSGGTDYADSVKGRFTISADTSKNTAYLQMNSLRAEDTAVYYCARVGLSFYAQEPVLDYWGQGTLVTVSSASPREPQVYTDPPSRDELTKNQVSLTCLVKGFYPSDIAVEWESNGQPENNYKTTPPVLDSDGSFFLYSKLTVDKSRWQQGNVFSCSVMHEALHNHYTQKSLSLSGEC chain 3: DIQMTQSPSSLSASVGDRVTITCRASQSVSSAVAWYQQKPGKAPKLLIYSASSLYSGVPSRFSGSRSGTDFTLTISSLQPEDFATYYCQQYTSHPGTFGQGTKVEIKRTVAAPSVFIFPPSDEQLKSGTASVVCLLNNFYPREAKVQWKVDNALQSGNSQESVTEQDSKDSTYSLSSTLTLSKADYEKHKVYACEVTHQGLSSPVTKSFNRGECDKTHTCPPCPAPELLGGPSVFLFPPKPKDTLMISRTPEVTCVVVDVSHEDPEVKFNWYVDGVEVHNAKTKPREEQYNSTYRVVSVLTVLHQDWLNGKEYKCKVSNKALPAPIEKTISKAKGQPREPQVCTLPPSREEMTKNQVSLSCAVKGFYPSDIAVEWESNGQPENNYKTTPPVLDSDGSFFLVSKLTVDKSRWQQGNVFSCSVMHEALHNHYTQKSLSLSPGK chain 4: EVQLVESGGGLVQPGGSLRLSCAASGFTFSSYVIHWVRQAPGKGLEWVAYIFPYGGTTYYADSVKGRFTISADTSKNTAYLQMNSLRAEDTAVYYCARGYYYVSDRVMDYWGQGTLVTVSSASTKGPSVFPLAPSSKSTSGGTAALGCLVKDYFPEPVTVSWNSGALTSGVHTFPAVLQSSGLYSLSSVVTVPSSSLGTQTYICNVNHKPSNTKVDKKVEPPKSC,antibody concentration at peak T cell proliferation,[4],10 nM
